Test results taken from patent publication US20220288169A1, “COMPOSITIONS AND METHODS FOR THE TREATMENT AND PREVENTION OF HYPOGLYCEMIC COMPLICATIONS” (The Board of Supervisors of Louisiana State University and …, priority 2019, published 2022).
Several values for one entry are separate records, joined by “and”; a condition that tells them apart may be missing. Identical values can stand only once. Entries after “also recorded” stand apart in the source; their conditions may differ. Like-named read-outs stand apart in the source and are kept apart here.

What was measured:
[1] = test system: male C57BL/6J mice exposed to 60% caloric restriction (CR mice); format: in vivo, mouse
Protocol: In order to overcome differences in baseline blood glucose levels between groups, a variable dose of insulin (IP) was used to produce equivalent exposure to hypoglycemia (A). […] Data were analyzed via one or two way ANOVA. Group differences were determined via Bonferroni's multiple comparison test with significance levels as follows: *- p<0.05; n=7-8/group. A total of 149 mice were subjected to the severe caloric restriction and refeeding paradigm across four separate experiments. The following procedures were identical across all four experiments. Animals were randomly assigned to one of two groups: Mice exposed to severe caloric restriction for six days (CR mice) or ad libitum fed mice (Ad-lib mice). […] Following a five-day acclimation period to wire-bottomed cages (Days 0-4), food intake was monitored daily in each mouse for six days prior to initiation of caloric restriction, and each mouse's average daily food intake was determined (Days 5-10). […] Body weight and free-living blood glucose were measured daily immediately prior to feeding. […] During the refeeding period, food intake, free-living blood glucose, and body weight continued to be measured daily at 1.5 h before lights off in both CR and Ad-lib mice up to the terminal day of the experiments. […] Rat leptin levels were determined by […], MilliporeSigma, St. Louis, Mo.). […]

[2] = test system: rats exposed to a single bout of hypoglycemia or 3dRH; settings: cited from earlier work
[3] = test system: male Sprague Dawley rats exposed to 3dRH (rat model of HAAF); format: in vivo
Protocol: For Experiment 5, a total of 21 rats were subjected to a three day recurrent hypoglycemia (3dRH) paradigm adapted from previous studies (44). […] On each of the three days of the paradigm, all rats received an IP injection of either PBS or leptin at ≈1.5 h prior to lights off. […] On the fourth day, all three cohorts of rats were then subjected to a hypoglycemic ITT for determination of hypoglycemia-induced epinephrine, glucagon, and corticosterone secretion. Leptin levels were also assayed in each group at the conclusion of the ITT. […] For mice, trunk blood was collected following CO2 euthanasia. […] Louis, Mo.). […] Rat leptin levels were determined by […], MilliporeSigma, St. Louis, Mo.). […] Methods: In experiment one, 3 groups of mice (two CR groups and one ad-lib fed control group) received either twice daily leptin (0.5-1 μg/g, IP) or PBS. In experiment two, 3 groups of rats (two 3dRH and one control) received daily leptin or PBS injections (0.3-0.7 mg/kg, IP).

[4] = test system: starved rats; settings: acute leptin infusion during starvation, cited from earlier work
[5] = acute ICV leptin in 3dRH rats, first 40 min of 90 min hypoglycemic challenge, relative to 3dRH rats not treated with leptin
[6] = acute ICV leptin infusion, rats exposed to a single bout of hypoglycemia

B1: leptin (protein, UniProt P50596 22-167, looked up)
Leptin: VPIHKVQDDTKTLIKTIVTRINDISHTQSVSARQRVTGLDFIPGLHPILSLSKMDQTLAVYQQILTSLPSQNVLQIAHDLENLRDLLHLLAFSKSCSLPQTRGLQKPESLDGVLEASLYSTEVVALSRLQGSLQDILQQLDLSPEC
notes: hormone secreted by adipocytes
hypoglycemia-induced glucagon levels ([1]; CR+Leptin mice, twice daily IP leptin 0.5-1 μg/g during CR, 60 min of ITT, Day 1 of refeeding, mean (SD)): 91.7 pmol/L and 78.1 pmol/L
serum glucagon levels in response to the ITT ([1]; Example 7, leptin-treated CR mice, 0.5-1 μg/g IP twice daily, after 16 h refeeding and 6 h fast): 78.0 ± 16.8 pg/mL
epinephrine levels increased by [2, 5]: 25%
glucagon levels increased by [2, 5]: 45%
epinephrine levels increased by [2, 6]: 19%
glucagon levels decreased by [2, 6]: 50%
rescue of counter-regulation by acute leptin ([2]; acute leptin administration, 3dRH rats): did not restore counter-regulation; also recorded: does not reverse the effects of 3dRH; also recorded: did not correct the deficit in epinephrine release; also recorded: does not rescue the effect
epinephrine levels lower than untreated rats exposed to a single bout of hypoglycemia ([2]; leptin treated 3dRH rats): 60%
hypoglycemia-induced glucagon levels ([3]; 3dRH paradigm with leptin): not affected
hypoglycemia-induced glucagon levels ([3]; 3dRH+Leptin rats, 60 min of ITT, mean (SD)): 34 pmol/L
increase of epinephrine levels relative to untreated 3dRH rats ([3]; leptin concurrent with antecedent hypoglycemia): 50%
leptin levels at the 60-minute time point relative to controls ([3]; rat, in vivo): significantly increased
serum leptin levels at the conclusion of the ITT ([3]; rat, in vivo): 5.1 ng/mL
effect on blood glucose ([4]; physiological doses): reducing blood glucose
effect on blood glucose ([4]; supraphysiological doses): increasing blood glucose
